{"source": "paper PMC6395706", "about": "“Unique properties of PTEN-L contribute to neuroprotection in response to ischemic-like stress” (Scientific Reports, 2019)", "key": {"[1]": {"biological_target": "endogenous PTEN-L (mouse (endogenous in primary cortical neurons))", "assay": "proximity ligation; Duolink PLA with anti-GAB2 and anti-PTEN-L antibodies in fixed, permeabilised primary neurons at DIV 9 treated with 50 µM glutamate for 60 min; proximities below 40 nm"}, "PTEN-L:EGFP": {"biological_target": "T1, PTEN-L:EGFP (human, UniProt P60484-2 1-576)", "T1 construct": "human PTEN-L (PTENα), the long translational variant of PTEN with 173 additional N-terminal residues (aa 1-173 unique, aa 174-576 shared with PTEN); gene synthesis with an ATG start codon replacing the alternative CTG start; PCR primers run from the start codon to the last codon before the spacer; A Gly-Gly-Thr-Gly-Gly spacer precedes the C-terminal EGFP; Cloned in the lentiviral transfer vector …", "assay": "proximity ligation; Duolink PLA with anti-GAB2 and anti-PTEN-L antibodies in fixed, permeabilised primary neurons at DIV 9 treated with 50 µM glutamate for 60 min; proximities below 40 nm", "conditions": "partners not purified"}}}
{"molecule": "GRB2-associated-binding protein 2 (from UniProt Q9Z1S8 1-665) (natural protein)", "values": [{"measurement": "fold decrease of PLA interaction complexes, glutamate against PBS", "setting": "[1]", "value": 3.98, "unit": "fold"}]}
{"molecule": "GRB2-associated-binding protein 2 (natural protein, UniProt Q9Z1S8 1-665, looked up, also called Gab2; GAB2; source: endogenous, mouse primary cortical neurons; in cytosolic or nuclear fractions, or in fixed cells) MSGGGGDDVVCTGWLRKSPPEKKLRRYAWKKRWFILRSGRMSGDPDVLEYYKNEHSKKPLRIINLNLCEQVDAGLTFNKKELQDSFVFDIKTSERTFYLVAETEADMNKWVQSICQICGFNQAEESTDSLRNLSSASHGPRSSPAEFSSSQHLLRERKSSAPSHSSQPTLFTFEPPVSSHMQPTLSTSAPQEYLYLHQCISRRTENARSASFSQGTRQKSDTAVQKLAQSNGHCINGVGGQVHGFYSLPKPSRHNTEFKDSTYDLPRSLASHGHTKSSLTGSETDNEDVYTFKMPSNTLCRELGDLLVDNMDVPTTPLSAYQIPRTFTLDKNHNAMTVATPGDSAIAPPPRPPKPSQAETSQWGSIQQRPPISENSRSVAATIPRRNTLPAMDNSRLHRASSCETYEYPARGSGESASWSAEPPGKTAVGRSNSASSDDNYVPMNPGSSTLLAMERPGDNSQSVYIPMSPGPHHFDPLGYPSTALPIHRGPSRGSEIQPPPVNRNLKPDRKAKPTPLDLRNNTVIDELPFKSPVTKSWSRINHTFNSSSSQYCRPISTQSITSTDSGDSEENYVPMQNPVSASPVPSGTNSPAPKKSTGSVDYLALDFQPGSPSPHRKPSTSSVTSDEKVDYVQVDKEKTQALQNTMQEWTDVRQSSEPSKGAKL", "values": [{"measurement": "fold decrease of PLA interaction complexes, glutamate against PBS", "setting": "PTEN-L:EGFP", "value": 4.61, "unit": "fold"}]}
